Reference: US20080220446A1, “Method for Detecting and/or Removing Protein and/or Peptide Comprising a Cross-Beta Structure From an Aqueous Solution Comprising a Protein” (priority 2005, published 2008)

Tests used:
factor XII = target: T1, factor XII (Homo sapiens, UniProt P00748); assay: ELISA, binding of β2GPI to immobilized factor XII
T1 construct: purified human factor XII from plasma (Calbiochem); purchased Calbiochem; host or cells: human plasma
T1 sequence (P00748 20-615): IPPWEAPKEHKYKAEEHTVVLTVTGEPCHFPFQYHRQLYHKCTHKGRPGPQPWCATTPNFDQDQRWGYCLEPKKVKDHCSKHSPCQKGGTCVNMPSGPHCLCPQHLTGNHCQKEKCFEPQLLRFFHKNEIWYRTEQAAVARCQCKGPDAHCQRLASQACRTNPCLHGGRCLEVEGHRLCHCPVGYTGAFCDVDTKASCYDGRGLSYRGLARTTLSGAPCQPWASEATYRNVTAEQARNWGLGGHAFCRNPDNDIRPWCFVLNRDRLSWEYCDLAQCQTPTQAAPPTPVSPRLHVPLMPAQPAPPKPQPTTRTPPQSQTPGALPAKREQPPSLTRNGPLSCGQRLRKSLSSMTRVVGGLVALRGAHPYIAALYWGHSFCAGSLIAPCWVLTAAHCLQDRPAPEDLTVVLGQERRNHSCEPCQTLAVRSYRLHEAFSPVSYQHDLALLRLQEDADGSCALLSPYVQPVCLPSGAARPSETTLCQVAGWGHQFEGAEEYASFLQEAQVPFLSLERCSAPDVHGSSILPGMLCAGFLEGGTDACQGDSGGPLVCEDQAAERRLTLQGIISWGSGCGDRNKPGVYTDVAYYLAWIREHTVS
Method: (§1) Binding of purified human factor XII from plasma (Calbiochem) or of purified recombinant human tPA to β2GPI purified from human plasma, or to recombinant human β2GPI was tested in an ELISA. Ten μg of factor XII or tPA in PBS was coated onto wells of a Costar 2595 ELISA plate (Cambridge, USA) and incubated with concentration series of the two β2GPI preparations. Binding of β2GPI was assessed with monoclonal antibody 2B2^22.

[1] = Thioflavin T fluorescence of protein solutions; format: physicochemical
Method: Fluorescence of ThT—protein/peptide adducts was measured as follows. […] Fluorescence was measured at 485 nm upon excitation at 435 nm. Background signals from buffer, buffer with ThT and protein/peptide solution without ThT were subtracted from corresponding measurements with protein solution incubated with ThT. Regularly, fluorescence of Aβ was used as a positive control, and fluorescence of FP10, a non-amyloid fibrin fragment^16, was used as a negative control. Fluorescence was measured in triplicate on a Hitachi F-4500 fluorescence spectrophotometer (Ltd., Tokyo, Japan).
Formulated protein therapeutics were obtained from the local hospital pharmacy and were used as supplied by the manufacturers. […] Lyophilized therapeutics were dissolved according to the manufacturers recommendations. GH, zinc-insulin, Cealb and gelatin were stored at −20, 4, room temperature, 37 and 65° C. Other protein therapeutics were only kept at 4° C., and assayed for the presence of cross-β structure at shown time points. Enhancement in fluorescence of ThT and Congo red was measured with all formulated protein therapeutics. […]
ThT fluorescence of β2GPI was measured as follows. […] In the ThT fluorescence assay, fluorescence of β2GPI in buffer, of CL or DXS500k in buffer, of buffer and ThT alone, and of β2GPI-CL adducts and β2GPI-DXS500k adducts, with or without ThT, was recorded as described above (section ThT fluorescence). In addition, TEM images were recorded with CL, β2GPI from human plasma, with or without CL, and with recombinant β2GPI, as described^5.
(§2) To prepare structurally altered ovalbumin (OVA) with amyloid cross-β structures, purified OVA (Sigma, A-7641, lot 071k7094) was heated to 85° C. […] Native OVA (nOVA) and heat-denatured OVA (dOVA) were tested in the ThT fluorescence assay and in the Plg-activation assay. In the fluorescence assay and in the Plg-activation assay, 25 and 100 μg ml^−1 nOVA and dOVA were tested, respectively. […]
MSA (#126674, Calbiochem) was dissolved in 8 M urea, 100 mM Tris-HCl pH 8.2, at 10 mg ml^−1 final concentration. […] The presence of aggregates or fibrils was analyzed using TEM. […]

tPA [2] = target: T2, tPA (Homo sapiens, UniProt P00750); assay: Plasminogen-activation assay (tPA activation, S-2251); format: biochemical; conditions: β2GPI preparations, 100 μg ml^−1
T2 sequence (P00750 36-562): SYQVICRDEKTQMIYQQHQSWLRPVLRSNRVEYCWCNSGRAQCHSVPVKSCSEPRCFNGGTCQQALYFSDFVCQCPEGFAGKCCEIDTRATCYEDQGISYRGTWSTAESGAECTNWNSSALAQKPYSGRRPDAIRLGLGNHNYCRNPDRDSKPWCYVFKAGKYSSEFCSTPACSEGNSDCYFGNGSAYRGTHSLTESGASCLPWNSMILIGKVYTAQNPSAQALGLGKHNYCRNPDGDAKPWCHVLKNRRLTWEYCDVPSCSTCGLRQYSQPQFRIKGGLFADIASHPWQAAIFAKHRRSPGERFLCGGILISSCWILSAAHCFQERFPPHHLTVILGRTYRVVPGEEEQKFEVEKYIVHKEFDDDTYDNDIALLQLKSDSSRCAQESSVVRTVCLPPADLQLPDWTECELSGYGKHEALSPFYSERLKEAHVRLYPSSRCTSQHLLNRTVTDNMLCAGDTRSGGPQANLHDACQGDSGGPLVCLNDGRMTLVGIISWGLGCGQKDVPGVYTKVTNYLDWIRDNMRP
Method: Plasmin (Pls) activity was assayed as described^16. Peptides and proteins that were tested for their stimulatory ability were regularly used at 100 μg ml^−1. […] Chromogenic substrate S-2251 (Chromogenix, Instrumentation Laboratory SpA, Milano, Italy) was used to measure Pls activity. Conversion of zymogen factor XII (#233490, Calbiochem, EMD Biosciences, Inc., San Diego, Calif.) to proteolytically active factor XII (factor XIIa) was assayed by measurement of the conversion of chromogenic substrate Chromozym-PK (Roche Diagnostics, Almere, The Netherlands) by kallikrein. Chromozym-PK was used at a concentration of 0.3 mM. […] The conversion of Chromozym-PK was recorded kinetically at 37° C. for at least 60 minutes. […]
Formulated protein therapeutics were obtained from the local hospital pharmacy and were used as supplied by the manufacturers. […] Enhancement in fluorescence of ThT and Congo red was measured with all formulated protein therapeutics. […]
as §2

tPA [3] = target: T2, tPA; assay: ELISA, binding of β2GPI to immobilized tPA
Method: as §1

tPA [4] = target: T2, tPA; assay: tPA/plasminogen activation assay; format: biochemical; conditions: β2gpi exposed to cardiolipin or alkylated, 100 μg/ml
Method: β2-GPI was reduced and alkylated as follows. Sixhundredforty μl of β2-GPI stock was mixed with 640 μl of 8 M Urea (cooled solution) in 0.1 M Tris pH-8.2. The solution was degassed with N2 gas for approximately 6 minutes. From a 1 M DTT stock 12.8 μl was added to the solution, mixed and incubated for 3 hours at room temperature. A 1 M Iodoacetamide (Sigma; I-6125) was prepared, of which 25.6 μl was added to the β2-GPI reaction mixture. The solution was subsequently dialysed against PBS. […] Signals obtained with alkyl-β2gpi are compared with those obtained with native β2gpi starting material and with positive control acid/heat denatured amyloid-like misfolded γ-globulins.
Exiqon Peptide Immobilizer plates were blocked for 1 hour with PBS, 1% Tween20 and rinsed twice with distilled water. The conversion of the chromogenic substrate S-2251 (Chromogenix, Italy) by plasmin was kinetically measured at 37° C. on a Spectramax340 microplate reader at a wavelength of 405 nm. […] Denatured γ-globulins (100 μg/ml) with amyloid-like structure was used as reference and positive control. Lyophilized γ-globulins (Sigma, Mo., USA) were dissolved in a 1(:)1 volume ratio of 1,1,1,3,3,3-hexafluoro-2-propanol and trifluoro-acetic acid and subsequently dried under air. […]
Protein therapeutics were obtained from the local hospital pharmacy and analyzed within the expiry limits as stated by the manufacturers.

fibronectin F4,5 = target: T3, fibronectin F4,5 (Homo sapiens, UniProt P02751); assay: Affinity determination ELISA, fibronectin F4,5 on coated (mis)folded proteins; format: binding; conditions: coated protein as labelled
T3 construct: human fibronectin finger 4,5 (Fn F4,5) fragment; made in house; host or cells: HEK293E
T3 sequence (P02751 182-276 limits assumed): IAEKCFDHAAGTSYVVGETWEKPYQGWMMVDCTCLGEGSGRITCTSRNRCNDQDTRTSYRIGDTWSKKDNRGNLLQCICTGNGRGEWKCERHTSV
Excerpt: (§3) Synthetic genes of human BiP, human fibronectin finger 4,5 (Fn F4,5) fragment, and human tissue-type plasminogen activator finger EGF (tPA F-EGF) fragment were ordered from Geneart (Regensburg, Germany). These DNA constructs were digested using BamHI and NotI, and ligated into vector pABC674 (ABC-expression facility, Utrecht University, The Netherlands), which contains a carboxy-terminal FLAG-tag—His-tag. HEK293E cells were transiently transfected with these constructs using the polyethylene-imine method, and grown for 5-6 days.
(§4) Denatured proteins and their native controls BSA (Sigma, A7906), glycated BSA, Hb (Sigma, H7605), glycated Hb, ovalbumin (Sigma, A6741), heat-denatured misfolded ovalbumin, human γ-globulins (Sigma, G4386), heat-denatured misfolded γ-globulins, alkyl-γ-globulins, lysozyme (ICN Biochemicals, 100831) and alkyl-lysozyme were coated on ELISA plates (Greiner Microlon high-binding, 655092) in 50 mM NaHCO3-buffer pH 9.6. The plates were blocked using Blocking reagent (Roche 1112589). […] Bound protein is detected by the FLAG-tag using 1:3000 anti-FLAG-HRP (Sigma A-8592) in PBS-T, or by 1:1000 Ni-NTA-HRP (Qiagen 34530) in PBS-T. The HRP reaction Is performed using the TMB substrate (Biosource 4501103 or Tebu Bio 101TMB100-500), stopped using 10% H2SO4 and absorbance was measured at 450 nm.

tPA F-EGF = target: T4, tPA F-EGF (Homo sapiens, UniProt P00750); assay: Affinity determination ELISA, tPA F-EGF on coated (mis)folded proteins; format: binding; conditions: coated protein as labelled, relative to native control
T4 construct: made in house; host or cells: HEK293E
T4 sequence (P00750 36-120 limits assumed): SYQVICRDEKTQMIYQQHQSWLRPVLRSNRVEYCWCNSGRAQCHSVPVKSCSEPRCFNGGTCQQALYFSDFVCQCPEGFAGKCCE
Excerpt: as §3, §4

B1: β2GPI purified from fresh plasma: β2-glycoprotein I purified from fresh human plasma (protein)
chain: GRTCPKPDDLPFSTVVPLKTFYEPGEEITYSCKPGYVSRGGMRKFICPLTGLWPINTLKCTPRVCPFAGILENGAVRYTTFEYPNTISFSCNTGFYLNGADSAKCTEEGKWSPELPVCAPIICPPPSIPTFATLRVYKPSAGNNSLYRDTAVFECLPQHAMFGNDTITCTTHGNWTKLPECREVKCPFPSRPDNGFVNYPAKPTLYYKDKATFGCHDGYSLDGPEEIECTKLGNWSAMPSCKASCKVPVKKATVVYQGERVKIQEKFKNGMLHGDKVSFFCKNKEKKCSYTEDAQCIDGTIEVPKCFKEHSSLAFWKTDASDVKPC
binding to factor XII (factor XII): not | ThT fluorescence signal ([1]; after exposure to CL or DXS500k): increased ThT fluorescence signal | stimulation of tPA-mediated conversion of Plg to Pls (tPA [2]): not | binding to tPA (tPA [3]; listed as β2GPI purified from fresh human plasma): not | binding to tPA (tPA [3]; listed as β2GPI purified from plasma): does not bind

B2: CL-β2gpi: β2gpi exposed to cardiolipin (protein)
chain: B1 chain
ability to activate tPA/plasminogen (tPA [4]): accelerated

B3: heat-denatured OVA: ovalbumin heated to 85° C. (protein)
chain: GSIGAASMEFCFDVFKELKVHHANENIFYCPIAIMSALAMVYLGAKDSTRTQINKVVRFDKLPGFGDSIEAQCGTSVNVHSSLRDILNQITKPNDVYSFSLASRLYAEERYPILPEYLQCVKELYRGGLEPINFQTAADQARELINSWVESQTNGIIRNVLQPSSVDSQTAMVLVNAIVFKGLWEKAFKDEDTQAMPFRVTEQESKPVQMMYQIGLFRVASMASEKMKILELPFASGTMSMLVLLPDEVSGLEQLESIINFEKLTEWTSSNVMEERKIKVYLPRMKMEEKYNLTSVLMAMGITDVFSSSANLSGISSAESLKISQAVHAAHAEINEAGREVVGSAEAGVDAASVSEEFRADHPFLFCIKHIATNAVLFFGRCVSP
affinity for fibronectin F4,5 (fibronectin F4,5): clear difference in binding affinity | presence of cross-β structure conformation ([1]; conclusion from ThT fluorescence, Plg-activation assay and TEM): comprise the cross-β structure conformation | binding of tPA F-EGF (tPA F-EGF): Much lower binding
